Data taken from US20100210517A1 (RAPTOR PHARMACEUTICAL, published 2010).

How the values were obtained:
LRP2 CR89 R1088D [1] = target: T1, LRP2 CR89 R1088D (human, UniProt P98164 1022-1105); experiment: solid-phase binding assay, CR protein coated on plate, anti-RAP detection
T1 construct: also called YVWD

LRP2 CR89 [2] = target: T2, LRP2 CR89 (human, UniProt P98164 1025-1102); experiment: apparent Kd of the variant for the CR pair used in selection; no unit printed in Table 4, nM per Table 2 and paragraph 292
T2 construct: domain: CR89; also called YVWR; L2 CR89; not shown: N-terminal hexahistidine and S-peptide tags of pET30(+)a
T2 sequence (P98164 1025-1102): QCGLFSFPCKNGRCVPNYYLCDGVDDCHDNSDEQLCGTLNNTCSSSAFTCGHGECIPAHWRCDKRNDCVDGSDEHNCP

MAT CR12 = target: T3, MAT CR12 (human, UniProt Q9Y5Y6 452-524); experiment: solid-phase assay on coated CR protein, each ligand at 80 nM, blank-corrected absorbance
T3 construct: also called ST14 CR12; matriptase CR12
T3 sequence: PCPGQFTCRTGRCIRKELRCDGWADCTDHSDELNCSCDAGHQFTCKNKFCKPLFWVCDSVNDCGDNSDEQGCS
Experimental: (§1) Samples were tested twice, in duplicate, and values combined. Means and standard deviations were then calculated. Blank values obtained from wells incubated in the absence of ligand were used to correct absorbance data.
(§2) Solid phase binding assays-Purified, refolded CR protein (1 μg) was bound to Nunc Maxisorp™ 96-well plates in TBS pH 8 supplemented with 5 mM CaCl₂ (TBSC) overnight at 4° C. Wells were washed with TBSC and then blocked with TBSC containing 2% bovine serum albumin (BSA). […] Control wells contained no added ligand. As an additional control, to determine whether the absence of calcium affected binding, 10 mM EGTA was included in the incubation medium for some samples. […] Excess primary antibody was removed and wells washed before incubation with the secondary antibody, HRP-conjugated goat anti rabbit IgG (Bio-Rad). After washing, TMB substrate solutions (Bio-Rad) were added to detect HRP. Color development was stopped with 1N HCl. Absorption at 450 nm was measured with a microplate spectrophotometer (Molecular Devices). Data were plotted and Kd values derived by non-linear regression with the assumption of single-site binding (GraphPad Prism).

LRP2 CR2728 = target: T4, LRP2 CR2728 (human, UniProt P98164 3552-3631); experiment: as above
T4 construct: domain: CR2728; Its cloning is not described in the methods; not shown: N-terminal hexahistidine and S-peptide tags of pET30(+)a
T4 sequence (looked up): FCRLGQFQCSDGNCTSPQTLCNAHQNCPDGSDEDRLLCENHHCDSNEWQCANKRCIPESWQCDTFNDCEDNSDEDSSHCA
Experimental: as §1, §2

LRP2 CR3031 = target: T5, LRP2 CR3031 (human, UniProt P98164 3677-3755); experiment: as above
T5 construct: domain: CR3031; Its cloning is not described in the methods; not shown: N-terminal hexahistidine and S-peptide tags of pET30(+)a
T5 sequence (P98164 3677-3755): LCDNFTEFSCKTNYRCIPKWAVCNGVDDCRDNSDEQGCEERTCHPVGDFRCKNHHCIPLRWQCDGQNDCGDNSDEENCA
Experimental: as §1, §2

LRP2 CR34-36 = target: T6, LRP2 CR34-36 (human, UniProt P98164 3841-3963); experiment: as above
T6 construct: domain: CR34-36; not shown: N-terminal hexahistidine and S-peptide tags of pET30(+)a
T6 sequence (P98164 3841-3963): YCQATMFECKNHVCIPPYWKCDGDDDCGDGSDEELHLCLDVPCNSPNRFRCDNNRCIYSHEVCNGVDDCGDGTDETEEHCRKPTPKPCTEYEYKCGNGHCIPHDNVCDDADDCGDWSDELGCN
Experimental: as §1, §2

LRP2 CR3536 = target: T7, LRP2 CR3536 (human, UniProt P98164 3882-3963); experiment: as above
T7 construct: domain: CR3536; not shown: N-terminal hexahistidine and S-peptide tags of pET30(+)a
T7 sequence (P98164 3882-3963): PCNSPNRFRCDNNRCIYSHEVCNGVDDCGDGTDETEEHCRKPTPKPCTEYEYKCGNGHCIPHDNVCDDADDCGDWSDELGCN
Experimental: as §1, §2

LRP2 CR89 [3] = target: T2, LRP2 CR89; experiment: solid-phase assay on coated CR protein, single-site non-linear fit
Experimental: as §2

LRP2 CR89 R1088D [4] = target: T1, LRP2 CR89 R1088D; experiment: as above
Experimental: as §2

fold loss of affinity relative to LRP2 CR89 (LRP2 CR89 R1088D [1]): ~2 fold | Kd (LRP2 CR89 [2]): 38 nM | binding result (MAT CR12): no binding (tested: 80 nM) | binding result (LRP2 CR2728): no binding (tested: 80 nM) | binding result (LRP2 CR3031): no binding (tested: 80 nM) | binding result (LRP2 CR34-36): no binding (tested: 80 nM) | binding result (LRP2 CR3536): no binding (tested: 80 nM) | Kd (LRP2 CR89 [3]): 33 nM | Kd (LRP2 CR89 R1088D [4]): 78 nM
B1: MegaRAP1 d3 (ligand)
chain: LDRLRRVSHQGYTTEAKFEEPRVIDLWDLAQSANLTDKELEAFREELKYFKAKIEAHNHYQKQLEIAHEELRHAESVGDGERVSRSREKHALLEGRTKELGYTVKKHLQDLSGRISRAR
notes: V175L lies outside the d3 construct; also called RAPv2A d3; RAP v2 d3; not shown: N-terminal hexahistidine and S-peptide tags of pET30(+)a
